Series [1] relates to timothy grass pollen allergic patients and a non-atopic individual. Briefly: Skin prick testing (SPT), immediate type skin reactions. Particulars: for mean wheal diameter: 8 μg/ml, timothy grass pollen allergic patients, 20 minutes; for skin reactions in the non-allergic individual: non-allergic individual (#4). The series is classed as in vivo, human. The procedure:
The in vivo allergenic activity of the peptides and the mutant was studied by skin prick testing (SPT) in 3 timothy grass pollen allergic patients and a non-atopic individual. SPTs were performed on the individuals' forearms. Twenty microliter aliquots containing 2 concentrations of complete rPhl p 7 or Phl p 7-derived mutant M4 (2 μg/ml, 8 μg/ml) as well as two concentrations of Phl p 7-derived peptides (1 μg/ml m, 4 μg/ml ) were applied. In addition, standardized skin prick solutions (timothy grass pollen extract and histamine) (Allergopharma, Reinbeck, Germany) were tested. Reactions were recorded 20 minutes after SPT by photography and by transferring the ballpoint pen-surrounded wheal area with a scotch tape to paper. The mean wheal diameter (Dm) was calculated by measuring the maximal longitudinal and transversal diameter and dividing their sum by 2.

Series [2] is described as follows: Secondary structure analysis by far-UV CD. Type of series: physicochemical. Particulars: for secondary structure (far-UV CD spectra): 20° C., 0.1 cm cell. Here is the method:
CD measurements were carried out on a Jasco J-715 spectropolarimeter using a 0.1 cm pathlength cell equilibrated at 20° C. Spectra were recorded with 0.5 nm resolution at a scan speed of 100 nm/min and resulted from averaging 3 scans. The final spectra were baseline-corrected by subtracting the corresponding MilliQ spectra obtained under identical conditions. Results were fitted with the secondary structure estimation program J-700.

A short description of series [3]: Solubility observation. The series is classed as physicochemical.
For series [4], the system named is basophils of a timothy grass pollen allergic individual. Briefly: Basophil histamine release. The series is classed as cell-based, human. Particulars: granulocytes of one allergic individual; for concentration of maximum histamine release: 10^−6-10 μg/ml tested. Here is the method:
FIG. 3A, B. Induction of histamine release from basophils of a timothy grass pollen allergic patient. Granulocytes of a timothy grass pollen allergic patient were incubated with various concentrations (x-axis) of rPhl p 7 wild type (P7), Phl p 7-derived peptides (P1, P2), Phl p 7-derived mutant (M4) or another antigen (Hom s 4) (FIG. 3A).
Granulocytes were isolated from heparinized blood samples of a timothy grass pollen allergic individual by dextran sedimentation. Cells were incubated with increasing concentrations (10^−6-10 μg/ml) of each peptide or the mutant, and, for control purposes, with rPhl p 7 wild type. Histamine released in the cell-free culture supernatant was measured by radioimmunoassay (Immunotech, Marseille, France). Total histamine was determined after freezing and thawing of the cells.

The test system of series [5] is rPhl p 7 wild type. Briefly: Rabbit immunization, IgG reactivity with Phl p 7 by dot blot. The series is classed as in vivo. Particulars: rabbits, 200 μg/injection, Freund's adjuvant; antiserum 1:500-1:2000.
Series [6] concerns serum IgE of Phl p 7-sensitized grass pollen allergic patients. Briefly: IgE binding, dot blot with sera from ten timothy grass pollen allergic patients. The arrangement: species or system human. From the text:
The polypeptides of the invention show reduced binding to IgE antibodies from timothy grass pollen allergic patients compared with wild type Phl p 7 (SEQ ID NO:1). […] Recombinant Phl p 7 consisting substantially of the amino acid sequence as shown in SEQ ID NO:1 can be used to determine the IgE binding activity of wild type Phl p 7. IgE binding of polypeptides may be determined by Western blot analysis or dot blot experiments using serum from a timothy grass pollen allergic patient. Timothy grass pollen allergy is diagnosed according to a case history indicative for timothy grass pollen allergy (i.e., seasonal symptoms of allergy during the flowering period of grasses), positive skin test reaction to timothy grass pollen allergens and/or the detection of specific IgE antibodies to timothy grass pollen allergens in serum. Dot blots can be quantified by measuring the amount of ^125I-labeled anti-human IgE antibodies by gamma counting as described (Niederberger et al. J. Allergy Clin. Immunol. 1998, 102, 579-591).
(§1) Nitrocellulose blotted rPhl p 7 (lane Phl p 7) and rPhl p 7-derived mutants (lanes M1.6, M2A, M4) were probed with serum from a Phl p 7-sensitized grass pollen allergic patient. Bound IgE antibodies were detected with ^125I-labeled anti human IgE antibodies (FIG. 2A). Nitrocellulose dotted Phl p 7 and Phl p 7-derived mutants (M1.6, M2A, M4) as well the Phl p 7-derived peptides were probed with sera from ten Phl p 7-sensitized grass pollen allergic patients. Bound IgE antibodies were detected with ^125I-labeled anti human IgE antibodies (FIG. 2B).
(§2) The IgE binding capacity of purified Phl p 7-derived mutants (M1.6, M2A, M4) was compared with that of Phl p 7 wild type by western blot analysis using serum from a timothy grass pollen allergic patient (FIG. 2A) as well as by dot blot experiments using sera from ten timothy grass pollen allergic patients (FIG. 2B).
The IgE binding capacity of Phl p 7-derived peptides was compared with that of Phl p 7 wild type by dot blot experiments using sera from ten timothy grass pollen allergic patients (FIG. 2B). For both peptides the IgE binding capacity was completely abolished, when tested with serum from ten timothy grass pollen allergic patients.

In series [7] the test system is serum IgE of a Phl p 7-sensitized grass pollen allergic patient. In words: IgE binding, western blot with serum of a timothy grass pollen allergic patient. Details: species or system human. Particulars: serum from one timothy grass pollen allergic patient.
Description: as §1, §2

Series [8] relates to recombinant Aln g 4. Briefly: Rabbit immunization, antiserum reactivity with Aln g 4 by dot blot. Type of series: in vivo. Particulars: rabbit antiserum diluted 1:1000.
recombinant Aln g 4, sequence (O81701 whole entry): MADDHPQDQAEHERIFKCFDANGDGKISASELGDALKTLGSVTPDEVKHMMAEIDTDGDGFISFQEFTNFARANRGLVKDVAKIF

These results are taken from patent US7425333B2, “Hypoallergenic allergy vaccines based on the timothy grass pollen allergen Phl p 7” (Biomay Produktions-und Handels-Aktiengesellschaft, priority 2002, dated 2008).

Regarding `NCCc1c[nH]cn1` [histamine, reference compound], in series [1] (all individuals (3 allergic, 1 non-allergic)), the “skin reaction to positive control” value is reported as “All individuals reacted”.

For the molecule “C-terminal peptide: synthetic peptide comprising the complete C-terminal calcium-binding domain of Phl p 7 (SEQ ID NO:3), one cysteine added”, the “secondary structure (far-UV CD spectra)” value in series [2] was “unfolded”. In addition, the solubility entry in series [3] is “significant decreased solubility and precipitation”.

In the case of “N-terminal peptide: synthetic peptide comprising the complete N-terminal calcium-binding domain of Phl p 7 (SEQ ID NO:2), one cysteine added”, in series [2], the “secondary structure (far-UV CD spectra)” value is listed as “random coil secondary structure”.

B1: Phl p 7 wild type: recombinantly produced wild type timothy grass pollen allergen Phl p 7, amino acid sequence SEQ ID NO:1 (protein)
chain: MADDMERIFKRFDTNGDGKISLSELTDALRTLGSTSADEVQRMMAEIDTDGDGFIDFNEFISFCNANPGLMKDVAKVF
modifications: Phleum pratense
For B1, the “secondary structure (far-UV CD spectra)” value in series [2] was “significant larger α-helical signal”. In series [4], the “concentration of maximum histamine release” value is reported as 10^−4 μg/ml. The “immediate type skin reactions” value in series [1] (skin prick test, 2 μg/ml) is reported as “induced immediate type skin reactions”. Further, in series [1] (skin prick test), the mean wheal diameter was 9.3 mm and the “skin reactions in the non-allergic individual” value is on record as “no reactions”.

B2: M4: Phl p 7-derived mutant, SEQ ID NO:6: 17D→A, 24E→24A; 52D→52A, 59E→59A (protein)
chain: MADDMERIFKRFDTNGAGKISLSALTDALRTLGSTSADEVQRMMAEIDTDGAGFIDFNAFISFCNANPGLMKDVAKVF
As for B2, in series [2], the “secondary structure (far-UV CD spectra)” value is on record as “increasing portion of random-coil secondary structure”. Moreover, the “decrease of CD signal in contrast to normalized spectrum of rPhl p 7” value in series [2] (second analysis comparing Phl p 7 and point mutant-4) is “approximately 20%”. Also, in series [5], the “induction of IgG anti-Phl p 7 antibody response” value is recorded as “induced IgG anti-Phl p 7 antibody responses”. Also, the “concentration of maximum histamine release” value in series [4] is listed as 10^−3 μg/ml. Moreover, the “induction of histamine release” value in series [4] (increasing concentrations) is “dose-dependent release of histamine”. The “patients whose serum IgE bound (dot blot)” value in series [6] is “four out of ten”. In addition, in series [6] (compared with Phl p 7 wild type), the “IgE binding capacity (dot blot)” value is listed as “strongest reduction of IgE binding capacity”. Moreover, in series [1] (skin prick test), the mean wheal diameter came out at 7 mm and the “skin reactions in the non-allergic individual” value was “no reactions”. For the same molecule, in series [1] (skin prick test, allergic patients), the “immediate skin reactions compared with Phl p 7 wild type” value is “moderately weaker”. Besides, the “IgE binding capacity compared to Phl p 7 (western blot)” value in series [7] is “strongest reduction”. Further, the “recognition of cross-reactive allergen Aln g 4 by rabbit antiserum raised against the immunogen” value in series [8] is “recognized the Phl p 7-cross-reactive allergen, Aln g 4”.

B3: M2A: Phl p 7-derived mutant, SEQ ID NO:5: 17D→A, 24E→24A; 59E→59A (protein)
chain: MADDMERIFKRFDTNGAGKISLSALTDALRTLGSTSADEVQRMMAEIDTDGDGFIDFNAFISFCNANPGLMKDVAKVF
On to B3, for which the “patients whose serum IgE bound (dot blot)” value in series [6] is “five out of ten”.

B4: M1.6: Phl p 7-derived mutant, SEQ ID NO:4: 24E→24A (first EF-hand); 59E→59A (second EF-hand) (protein)
chain: MADDMERIFKRFDTNGDGKISLSALTDALRTLGSTSADEVQRMMAEIDTDGDGFIDFNAFISFCNANPGLMKDVAKVF
Consider B4, for which, in series [6], the “patients whose serum IgE bound (dot blot)” value is reported as “six out of ten”.
